Common to all, as to experiment: ELISA
What all share (details): both partners purified
For orientation: In an ELISA, binding on a coated surface is turned into a signal by an enzyme label.

The target of assay [1] is Pfs48/45 D3 (K287-A428) (Plasmodium falciparum 3D7, UniProt Q8I6T1).
Assay [2] addresses Pfs48/45 D1-2 (N28-K289) (Plasmodium falciparum 3D7, UniProt Q8I6T1).
Assay [3] has as its target Pfs48/45 D2-3 (H184-A428) (Plasmodium falciparum 3D7, UniProt Q8I6T1).
Assay [4] addresses recombinant full-length Pfs48/45 (Plasmodium falciparum 3D7, UniProt Q8I6T1).
Assay [5] has as its target Pfs48/45 D1-2 (Plasmodium falciparum 3D7, UniProt Q8I6T1).
For assay [6], the target named is Pfs48/45 D2-3 (Plasmodium falciparum 3D7, UniProt Q8I6T1).
The target of assay [7] is Pfs48/45 D3 (Plasmodium falciparum 3D7, UniProt Q8I6T1).
Pfs48/45 D3, sequence (Q8I6T1 287-428): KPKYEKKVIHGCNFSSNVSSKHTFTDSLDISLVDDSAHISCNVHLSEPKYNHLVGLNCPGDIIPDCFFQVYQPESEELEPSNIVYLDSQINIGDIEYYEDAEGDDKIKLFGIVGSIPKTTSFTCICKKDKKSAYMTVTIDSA

Pfs48/45 D3 (K287-A428), sequence (Q8I6T1 whole entry, looked up): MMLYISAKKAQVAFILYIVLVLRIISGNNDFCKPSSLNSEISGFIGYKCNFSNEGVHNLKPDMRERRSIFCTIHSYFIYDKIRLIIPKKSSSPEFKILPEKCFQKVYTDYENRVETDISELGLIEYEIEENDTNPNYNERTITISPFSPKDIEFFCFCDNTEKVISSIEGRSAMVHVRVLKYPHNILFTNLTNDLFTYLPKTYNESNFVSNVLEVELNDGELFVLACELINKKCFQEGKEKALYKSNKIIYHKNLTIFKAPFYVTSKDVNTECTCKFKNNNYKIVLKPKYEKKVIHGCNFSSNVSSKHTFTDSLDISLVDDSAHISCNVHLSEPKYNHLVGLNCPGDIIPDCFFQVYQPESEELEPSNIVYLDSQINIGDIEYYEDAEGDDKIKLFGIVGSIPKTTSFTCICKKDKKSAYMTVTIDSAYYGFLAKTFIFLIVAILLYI
Pfs48/45 D1-2 (N28-K289), sequence (Q8I6T1 whole entry, looked up): as above
Pfs48/45 D2-3 (H184-A428), sequence (Q8I6T1 whole entry, looked up): as above
Pfs48/45 D2-3, sequence (Q8I6T1 184-428): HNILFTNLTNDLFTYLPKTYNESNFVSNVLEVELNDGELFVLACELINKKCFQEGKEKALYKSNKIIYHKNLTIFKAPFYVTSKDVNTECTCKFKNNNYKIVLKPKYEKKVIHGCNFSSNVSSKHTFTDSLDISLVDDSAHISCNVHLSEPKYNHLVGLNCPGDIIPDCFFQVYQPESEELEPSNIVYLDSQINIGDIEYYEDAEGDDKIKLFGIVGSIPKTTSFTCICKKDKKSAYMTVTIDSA
recombinant full-length Pfs48/45, sequence (Q8I6T1 28-428): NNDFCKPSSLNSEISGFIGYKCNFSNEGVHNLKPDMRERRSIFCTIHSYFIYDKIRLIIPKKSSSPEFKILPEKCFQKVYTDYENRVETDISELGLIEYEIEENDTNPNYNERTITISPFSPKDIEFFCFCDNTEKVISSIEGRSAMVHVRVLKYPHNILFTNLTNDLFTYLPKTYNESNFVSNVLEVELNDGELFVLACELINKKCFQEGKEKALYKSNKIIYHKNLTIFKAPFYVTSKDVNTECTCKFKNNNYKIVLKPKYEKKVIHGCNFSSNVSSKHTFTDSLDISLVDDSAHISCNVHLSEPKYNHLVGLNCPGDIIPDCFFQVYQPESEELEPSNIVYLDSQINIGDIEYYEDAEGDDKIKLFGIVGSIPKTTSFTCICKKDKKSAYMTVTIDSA
Pfs48/45 D1-2, sequence (Q8I6T1 28-289): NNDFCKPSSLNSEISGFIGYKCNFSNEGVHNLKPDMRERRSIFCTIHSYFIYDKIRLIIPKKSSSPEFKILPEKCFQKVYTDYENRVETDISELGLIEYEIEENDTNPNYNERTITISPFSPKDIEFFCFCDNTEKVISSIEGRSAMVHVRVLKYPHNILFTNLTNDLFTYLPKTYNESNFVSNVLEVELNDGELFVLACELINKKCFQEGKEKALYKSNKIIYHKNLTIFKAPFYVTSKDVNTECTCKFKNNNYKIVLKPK

B1: RUPA-29 (hIgG1) (antibody, V domains shown)
VH: QVHLVESGGGVVQPGRSLRLSCAASGFTFRSYGMHWVRLAPGKGLEWVTAIWYDGSKKHFADSVKGRFTISRDNSKNTLYLQMSSLRVEDTAVYYCARDFAHGAFYPVDWGRGTLVTVSS
VL: SYELTQPPSVSVSPGQTARITCSGDALPKKHAYWYQQKSGQAPVLVIYDDSKRPSGIPERFSGSSSGTMATLSISGAQVEDEAAYYCYSSDTSANYWVFGGGTKLTVL
notes: IgG1; source: 293T cells, purified (Protein A), or produced as recombinant human IgG1 (GenScript)
As to B1, the binding result in assay [1] was “binds”.

B2: RUPA-25 (hIgG1) (antibody, V domains shown)
VH: QVQLVQSGAEVKKPGASVKVSCTASGYNFLTHDISWVRQATGQGLEWMGWMNPNTGKKGYVQKFQGRVTMDRDMSKSTAYMELRSLTSEDTAVYYCVRGVGSYYGSGGWFDPWGQGTLVTVSS
VL: QPVLTQPPSASETPGQKVTISCSGSSSNIGSDTVSWYVQLPGTAPKLLIYNDNQRPSGVPDRFSGSKSGTSASLAISGLQSEDEADYYCATWDASLKRRVFGGGTTLTVL
notes: as for B1
As to B2, the binding result in assay [2] and in assay [3] was “binds” throughout.

B3: RUPA-50 (hIgG1) (antibody, V domains shown)
VH: QVHLVESGGGVVQPGRSLRLSCAASGFTFRSYGMHWVRRVPGKGLEWVATISYDETFKDYPDSVKGRFTISRDNSKNTLFLQMNSLRPADTAVYYCAKDRAHSMHYFEYWGRGTLVTVSS
VL: SYELTQPPSVSVSPGQTARLTCSGDALPKKFAYWYQLKSGQAPVLVIYEDSKRPSGIPERFSGSSSGTTATLTISGAQVEDEADYYCYSRDGSGDQKNIFGGGTKLTVL
notes: as for B1
As to B3, the binding result in assay [1] is on record as “binds”.

B4: RUPA-160 (antibody, V domains shown)
VH: QVQLVQSGAEVKKPGASVKASCKASGYTFDNFDIIWARQATGQGLEWMGWMNPNTGKKGYAQNLKDRVTMTRDSSISTAYLELSSLRSEDTAVYYCVRAVGSYYGSGGWFDPWGQGTLVTVSS
VL: QSVLTQPPSASGTPGQRVTIACSGSSSNIGGNNVKWYQQLPGTAPKLVIYNNDERPPGVPDRVSGSKSGTSASLAISGVQSEDEADYYCATWDDSMKREVFGGGTKLTVL
notes: human IgG1; source: recombinant human IgG1, 293T (Protein A purified) or GenScript
On to B4, for which the binding result is “binds” in assay [4], “binds” in assay [5], “binds” in assay [6] and “no binding (tested: 10 ug/ml)” in assay [7].

B5: RUPA-160 (hIgG1) (antibody, V domains shown)
VH: QVQLVQSGAEVKKPGASVKASCKASGYTFDNFDIIWARQATGQGLEWMGWMNPNTGKKGYAQNLKDRVTMTRDSSISTAYLELSSLRSEDTAVYYCVRAVGSYYGSGGWFDPWGQGTLVTVSS
VL: QSVLTQPPSASGTPGQRVTIACSGSSSNIGGNNVKWYQQLPGTAPKLVIYNNDERPPGVPDRVSGSKSGTSASLAISGVQSEDEADYYCATWDDSMKREVFGGGTKLTVL
notes: as for B1
Consider B5, for which the binding result in assay [2] and in assay [3] was “binds” in each case.

B6: RUPA-58 (hIgG1) (antibody, V domains shown)
VH: QVQLVQSGPEAKKPGASVKVSCQASGYPFSGYYMHWLRQAPGQGLEWMGWMNPNSGGTKYAQRFQGRVTMTRDTSISTAHMELRGLRSDDTAVYYCARDYCTGSSCYRTDYDYWGQGTLVTVSS
VL: DIQMTQSPSSLSASVGDRVTITCRASQIISTYLNWYQHKPGKAPKLLIKSASTLQSGVPSRFSGSGSGTDFTLTITSLQPEDFATFYCQQSYRDPITFGQGTRLEIK
notes: as for B1
Consider B6, for which the binding result in assay [2] is listed as “binds”.

B7: RUPA-54 (hIgG1) (antibody, V domains shown)
VH: QVQLVESGGGVVQPGRSLRLSCTASGFTFRSYGIHWVRQAPGKGLQWVAFISYDGRNKYYADSVKGRFTISRDNSKNTLYLQMSGLRADDTAVYYCAKDSDNDCTATSCYTVSWGQGTLVTVSS
VL: SYELTQPPSVSVSPGQTARITCSGDALPKKYAYWYQQKSGQAPVLVIYEDKKRPSGIPERFSGSSSGTMATLTISGAQVEDEADYYCYSTDSRTDHGGIFGGGTKLTVL
notes: as for B1
On to B7, for which the binding result in assay [1] is “binds”.

B8: RUPA-100 (hIgG1) (antibody, V domains shown)
VH: QVQLVESGGGVVQPGRSLRLSCAASGFSFSHYGMHWVRQAPGKGLEWVAVISYDGNYKYYGDSVKGRFTISRDNFKNTLYLQMNSLRPEDTAVYYCAKGKAHSCVSTSCYTDFWGQGTLVTVPS
VL: SYELTQPPSVSVSPGQTARITCSGDALPKKYAYWYQQKSGQAPVLVIYEDSKRPSGIPERFSGSSSGTMATLTISGAQVEDEGDYYCYSTDSSYNHRGVFGGGTKLTVL
notes: as for B1
As for B8, the binding result in assay [1] was “binds”.

B9: RUPA-154 (hIgG1) (antibody, V domains shown)
VH: QVQLVQSGAEVRKPGASVKVSCRTSGYTFTDYYMHWVRQAPGEGLEWMGSINPKSGGTSYAERFQGRVTMTMETSVSTAYLDLSSLRSDDTAVYYCARLLYSRAVYYYGMDVWGQGTTVTVSS
VL: SYELTQPPSVSVAPGKTARITCGGKDLGSKSVHWYQQKPGQAPVLVIYYDNIRPSGIPERFSGSNSGNTATLTISRVEAGDEADYYCQVWDSSSDHYVFGRGAKVTVL
notes: as for B1
In the case of B9, the binding result in assay [2], in assay [3] and in assay [1] was “binds” in each case.

The values are drawn from article PMC9942873 (Immunity, 2023).
